Measured values reported in patent US20260258452, “RNA-GUIDED NUCLEASES AND ACTIVE FRAGMENTS AND VARIANTS THEREOF AND METHODS OF USE” (Life Edit Therapeutics, Inc., published 2026).

T1: APG07991 (Enterococcus sp.)
T1 chain: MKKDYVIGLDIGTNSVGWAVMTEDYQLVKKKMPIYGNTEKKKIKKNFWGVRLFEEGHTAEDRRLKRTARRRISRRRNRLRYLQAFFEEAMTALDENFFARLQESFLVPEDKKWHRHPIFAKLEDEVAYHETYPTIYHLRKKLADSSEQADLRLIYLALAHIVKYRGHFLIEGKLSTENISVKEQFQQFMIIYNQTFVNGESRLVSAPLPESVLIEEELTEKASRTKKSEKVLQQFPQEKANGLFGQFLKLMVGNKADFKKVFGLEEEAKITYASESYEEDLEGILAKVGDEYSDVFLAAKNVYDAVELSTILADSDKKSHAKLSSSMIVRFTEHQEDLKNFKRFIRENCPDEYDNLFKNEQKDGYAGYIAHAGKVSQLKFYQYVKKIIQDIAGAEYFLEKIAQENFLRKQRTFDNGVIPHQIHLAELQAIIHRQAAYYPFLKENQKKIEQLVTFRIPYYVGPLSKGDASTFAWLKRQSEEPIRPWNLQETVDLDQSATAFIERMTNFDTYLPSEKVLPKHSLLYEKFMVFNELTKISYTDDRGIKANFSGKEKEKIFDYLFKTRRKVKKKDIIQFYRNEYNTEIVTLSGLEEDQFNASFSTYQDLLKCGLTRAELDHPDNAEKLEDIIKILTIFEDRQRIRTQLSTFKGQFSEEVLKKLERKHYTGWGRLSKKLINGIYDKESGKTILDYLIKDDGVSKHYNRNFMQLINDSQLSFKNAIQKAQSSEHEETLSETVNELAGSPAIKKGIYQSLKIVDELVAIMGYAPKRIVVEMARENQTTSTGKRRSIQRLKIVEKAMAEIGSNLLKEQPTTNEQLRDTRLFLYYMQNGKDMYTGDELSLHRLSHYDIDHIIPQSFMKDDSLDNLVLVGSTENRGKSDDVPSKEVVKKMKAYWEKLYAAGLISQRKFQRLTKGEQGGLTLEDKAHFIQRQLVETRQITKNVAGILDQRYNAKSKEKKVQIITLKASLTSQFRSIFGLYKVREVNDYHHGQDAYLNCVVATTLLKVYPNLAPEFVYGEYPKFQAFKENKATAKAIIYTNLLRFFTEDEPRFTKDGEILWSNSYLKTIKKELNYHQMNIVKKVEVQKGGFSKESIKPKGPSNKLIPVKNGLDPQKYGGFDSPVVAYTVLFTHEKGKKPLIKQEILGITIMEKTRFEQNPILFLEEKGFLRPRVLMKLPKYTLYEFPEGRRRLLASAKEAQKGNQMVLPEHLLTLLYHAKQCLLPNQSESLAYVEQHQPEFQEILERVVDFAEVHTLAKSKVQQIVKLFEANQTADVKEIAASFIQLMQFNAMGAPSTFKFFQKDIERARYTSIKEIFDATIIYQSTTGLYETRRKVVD

T2: APG01868 (Enterococcus sp.)
T2 chain: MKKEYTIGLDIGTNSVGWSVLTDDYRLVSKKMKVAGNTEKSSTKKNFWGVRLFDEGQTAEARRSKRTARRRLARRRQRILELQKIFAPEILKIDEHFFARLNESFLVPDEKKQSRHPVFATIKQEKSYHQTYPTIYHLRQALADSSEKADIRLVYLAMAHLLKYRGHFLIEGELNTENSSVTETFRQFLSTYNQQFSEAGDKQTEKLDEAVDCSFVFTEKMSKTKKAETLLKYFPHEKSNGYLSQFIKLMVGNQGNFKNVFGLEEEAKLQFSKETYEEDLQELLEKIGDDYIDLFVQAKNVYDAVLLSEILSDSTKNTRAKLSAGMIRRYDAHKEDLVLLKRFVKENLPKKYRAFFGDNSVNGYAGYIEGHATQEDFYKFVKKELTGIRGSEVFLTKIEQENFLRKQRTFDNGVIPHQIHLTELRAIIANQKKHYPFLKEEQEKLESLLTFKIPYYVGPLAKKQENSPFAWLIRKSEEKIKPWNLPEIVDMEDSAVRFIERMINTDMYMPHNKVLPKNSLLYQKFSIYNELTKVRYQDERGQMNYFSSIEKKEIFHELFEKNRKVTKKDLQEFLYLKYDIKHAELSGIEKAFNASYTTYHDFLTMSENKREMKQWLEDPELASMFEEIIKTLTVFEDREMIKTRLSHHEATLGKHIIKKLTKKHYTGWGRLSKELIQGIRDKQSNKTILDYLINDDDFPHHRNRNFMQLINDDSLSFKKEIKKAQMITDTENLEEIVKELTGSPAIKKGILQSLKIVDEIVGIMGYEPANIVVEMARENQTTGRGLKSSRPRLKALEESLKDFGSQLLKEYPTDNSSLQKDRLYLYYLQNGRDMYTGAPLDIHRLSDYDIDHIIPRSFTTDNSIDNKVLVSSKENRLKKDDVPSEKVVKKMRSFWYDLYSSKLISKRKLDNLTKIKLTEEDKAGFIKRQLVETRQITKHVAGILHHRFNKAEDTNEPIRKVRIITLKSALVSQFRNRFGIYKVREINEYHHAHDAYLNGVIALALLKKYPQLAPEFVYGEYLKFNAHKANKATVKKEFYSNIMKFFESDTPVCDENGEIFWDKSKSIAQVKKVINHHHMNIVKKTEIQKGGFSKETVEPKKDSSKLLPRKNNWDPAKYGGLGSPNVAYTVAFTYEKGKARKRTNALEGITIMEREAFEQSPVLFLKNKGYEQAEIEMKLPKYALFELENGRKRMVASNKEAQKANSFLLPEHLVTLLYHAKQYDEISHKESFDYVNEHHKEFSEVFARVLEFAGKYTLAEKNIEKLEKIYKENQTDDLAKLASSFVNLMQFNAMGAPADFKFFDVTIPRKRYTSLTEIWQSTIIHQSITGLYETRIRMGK

T3: APG02998 (Enterococcus sp.)
T3 chain: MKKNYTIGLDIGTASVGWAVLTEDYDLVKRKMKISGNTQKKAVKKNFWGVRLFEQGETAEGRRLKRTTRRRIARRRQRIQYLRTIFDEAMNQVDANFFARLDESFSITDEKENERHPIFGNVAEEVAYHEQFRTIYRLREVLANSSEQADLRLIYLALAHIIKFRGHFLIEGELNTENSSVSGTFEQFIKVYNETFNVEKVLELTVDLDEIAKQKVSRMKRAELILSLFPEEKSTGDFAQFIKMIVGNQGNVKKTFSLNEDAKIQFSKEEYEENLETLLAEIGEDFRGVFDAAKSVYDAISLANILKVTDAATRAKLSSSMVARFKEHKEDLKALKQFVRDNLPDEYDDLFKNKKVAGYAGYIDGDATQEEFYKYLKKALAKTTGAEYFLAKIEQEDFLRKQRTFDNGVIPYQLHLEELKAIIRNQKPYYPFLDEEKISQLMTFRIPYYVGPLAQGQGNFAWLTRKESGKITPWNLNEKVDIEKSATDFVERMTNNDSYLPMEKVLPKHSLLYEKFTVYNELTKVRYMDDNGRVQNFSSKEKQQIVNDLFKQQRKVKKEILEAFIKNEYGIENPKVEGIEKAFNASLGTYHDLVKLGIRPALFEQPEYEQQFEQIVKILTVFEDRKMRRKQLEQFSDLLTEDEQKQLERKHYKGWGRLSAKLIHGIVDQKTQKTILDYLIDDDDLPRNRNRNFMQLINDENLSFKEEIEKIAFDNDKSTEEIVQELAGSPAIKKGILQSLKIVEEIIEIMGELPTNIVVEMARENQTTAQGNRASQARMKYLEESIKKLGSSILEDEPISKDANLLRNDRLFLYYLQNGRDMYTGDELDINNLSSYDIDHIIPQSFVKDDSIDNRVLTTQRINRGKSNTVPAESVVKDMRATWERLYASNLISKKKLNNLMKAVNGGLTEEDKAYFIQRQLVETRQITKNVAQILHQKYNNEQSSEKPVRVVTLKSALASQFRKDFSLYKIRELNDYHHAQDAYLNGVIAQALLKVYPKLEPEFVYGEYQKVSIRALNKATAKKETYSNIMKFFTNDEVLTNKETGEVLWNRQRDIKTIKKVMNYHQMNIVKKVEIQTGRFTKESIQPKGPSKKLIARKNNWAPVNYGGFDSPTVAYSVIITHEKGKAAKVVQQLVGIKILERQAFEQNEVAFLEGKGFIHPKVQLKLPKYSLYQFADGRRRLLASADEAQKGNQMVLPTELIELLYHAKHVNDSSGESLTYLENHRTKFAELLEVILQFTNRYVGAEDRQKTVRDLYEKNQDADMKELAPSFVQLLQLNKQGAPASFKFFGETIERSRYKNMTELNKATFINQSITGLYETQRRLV

B1: SGN001357 ; HAO1 target SGN001357 (ssRNA ; dsDNA)
RNA: CAUUGAUACAAAUUAGCCGGGUUUUAGAGUCAUGUUGAAAGCAACAUAGCAAGUUAAAAUAAGGUUUUAACCGUAAUCAACUGUAAAGUGGCGCUGUUUCGGCGCUUUU
DNA 1: CATTGATACAAATTAGCCGG
DNA 2: CCGGCTAATTTGTATCAATG
B2: SGN001343 ; TRA target SGN001343 (ssRNA ; dsDNA)
RNA: UCUGUGGGACAAGAGGAUCAGUUUUAGAGCUAUGCAAAGGCAUAGCAAGUUAAAAUAAGGCUUUGUCCGUCAUCAGCUUUUUUAAAGCAGCGCUGUUCUCGGCGCUUUU
DNA 1: TCTGTGGGACAAGAGGATCA
DNA 2: TGATCCTCTTGTCCCACAGA
B3: SGN001317 ; RelA target SGN001317 (ssRNA ; dsDNA)
RNA: ACAGUGCGCAUCUCCCUGGUCACCAGUUUUAGAGCUAUGCAAAGGCAUAGCAAGUUAAAAUAAGGCUUUGUCCGUCAUCAGCUUUUUUAAAGCAGCGCUGUUCUCGGCGCUUUU
DNA 1: ACAGTGCGCATCTCCCTGGTCACCA
DNA 2: TGGTGACCAGGGAGATGCGCACTGT
B4: SGN001346 ; TRA target SGN001346 (ssRNA ; dsDNA)
RNA: UCUGUGGGACAAGAGGAUCAGUUUUAGAGCUAUGCAAAGGCAUAGCAAGUUAAAAUAAGGCUUAGUCCGUAAACAAACUUUGGCACUGUAUUCGGUGCUUUUUUU
DNA 1: TCTGTGGGACAAGAGGATCA
DNA 2: TGATCCTCTTGTCCCACAGA
B5: SGN001320 ; RelA target SGN001320 (ssRNA ; dsDNA)
RNA: ACAGUGCGCAUCUCCCUGGUCACCAGUUUUAGAGCUAUGCAAAGGCAUAGCAAGUUAAAAUAAGGCUUAGUCCGUAAACAAACUUUGGCACUGUAUUCGGUGCUUUUUUU
DNA 1: ACAGTGCGCATCTCCCTGGTCACCA
DNA 2: TGGTGACCAGGGAGATGCGCACTGT

Key:
Assay in all cases: cell_activity; PAM SEQ ID 116
Conditions in all cases: tags: N-terminal SV40 NLS and 3xFLAG, C-terminal nucleoplasmin NLS
[1] = target: T1, APG07991
Description: (§1) Additionally, products from PCR #2 containing Illumina overhang sequences underwent library preparation following the Illumina 16S Metagenomic Sequencing Library protocol. Deep sequencing was performed on an Illumina Mi-Seq platform by a service provider (MOGene). Typically, 200,000 of 250 bp paired-end reads (2×100,000 reads) are generated per amplicon. […] Output alignments were hand-curated to confirm insertion and deletion sites as well as identify microhomology sites at the recombination sites. All experiments were performed in human cells. The “target sequence” is the targeted sequence within the gene target. For each target sequence, the guide RNA comprised the complementary RNA target sequence and the appropriate sgRNA depending on the RGN used.

[2] = target: T2, APG01868
Description: as §1

[3] = target: T3, APG02998
Description: as §1

Row | Binder | activity [2] [% editing] | activity [3] [% editing] | also measured
1 | B1 |  |  | activity [1]: 13.3 % editing
2 | B2 | 41.4 |  | 
3 | B3 | 19.4 |  | 
4 | B4 |  | 5.87 | 
5 | B5 |  | 3.48 | 
